Key:
Hep3B hepatoma cells = assay: Hep3B xenograft animal model with GES1 IgG; type: in vivo, NOD-SCID mice; settings: 200 mg/Kg sorafenib orally
Method: GES1 scFv antibody was humanized to obtain humanized IgG antibody (GES1 humanized scFv antibody) and a xenograft animal model was conducted. Hep3B hepatoma cells were cloned to NOD-SCID mice. After the tumors were generated, 1 mg/Kg and 5 mg/Kg of GES1 IgG were i.v. injected into the mice once a week. Another group of the mice were orally administered with 200 mg/Kg sorafenic.

[1] = test system: HepG2 and HuH-7 ectopic xenografts; settings: cited from earlier work
[2] = test system: GPC3-positive HepG2 cells and Hep 3B cells; assay: Immunofluorescence staining binding analysis; type: cell-based, human; settings: Hep 3B cells (FIG. 9A) and Hep G2 cells (FIG. 9B)
Method: HepG2, Hep3B, cells (2×10^5 cells/ml) were seeded on cover glass and fixed by incubating with equal volume of 8% freshly prepared ice-cold paraformaldehyde on ice for 15 min. After fixing, the cells were dehydrated in a sequential treatment of 70%, 95% and 99% methanol and rehydrated with 95% and 70% methanol. The slides were then overlaid with blocking buffer (1% BSA in 1×PBS) at room temperature (RT) for 1 hr. Following washing with 1×PBS, specific monoclonal mouse or scFv antibodies were incubated with cells at RT for one additional hr. Finally, their binding to GPC3 protein was detected by mouse anti-HA antibodies, followed by FITC-conjugated goat anti-mouse antibodies. Nuclei were counterstained with PI solution in parallel. The slides were examined using a Confocal Spectral Microscope Imaging System (TCS SP5, Leica). […] The partially purified scFv antibodies were examined for their binding activity to GPC3-positive HepG2 cells and Hep 3B cells.

[3] = test system: GPC3-positive Hep3B, HepG2 and HepJ5 cells; assay: Flow cytometry binding analysis; type: cell-based, human; settings: 100 μg/ml
Method: A total of 2×10^6 HepG2, Hep3B, cells were harvested and fixed with 2% paraformaldehyde as described previously with minor modification (Leu et al., 2010). The GPC3 molecule expressed in these […] cells were detected by adding purified chicken scFv antibodies, followed by mouse anti-HA (1:200) and FITC-conjugated goat anti-mouse antibodies (1:200). The results were analyzed using the FACScan flow cytometer Negative controls were performed by omitting the primary scFv antibodies, while positive controls were performed using commercial polyclonal anti-human GPC3 antibodies (1:200) instead of home-made chicken anti-GPC3 scFv antibodies. […] The partially purified scFv antibodies were examined for their binding activity to GPC3-positive Hep3B, HepG2 and HepJ5 cells.

GPC3 in HepG2 cells = GPC3 in HepG2 cells (Homo sapiens, UniProt P51654); assay: Immunoprecipitation assay, HepG2 cell lysate; type: binding; design: endogenous in cells; host or cells: HepG2; settings: HepG2 total cell lysate; data very preliminary
Method: (§1) Antibody beads were prepared by covalently linking 100 ul of Ni-NTA Sepharose (Amersham Biosciences) and 1 mg of anti-GPC3 scFv antibodies with 20 mM dimethyl pimelimidate. Then, 500 ul of HepG2 and Hep3B cell lysates were be mixed with 25 ul of antibody beads and incubated for 2 hr at 4° C. After extensive washing with PBST, antibody beads will be resuspended in 50 ul of SDS-PAGE loading buffer, boiled for 5 min, and subsequently subjected to western blotting analysis. […] The total cell lysates of Hep3B and HepG2 were incubated with a mixture of his-beads and G5S1, GES1, GES6 or 70SC control scFv antibodies individually. After washing, the his-beads complex was subjected to SDS-PAGE and western blot analysis. […] By contrast, the protein in HepG2 cells was precipitated by GES1, G5S1 and GES6 scFv antibodies. However, the data were very preliminary and need further verification.

Hep3B cells [4] = assay: Soft agar colony formation assay, Hep3B; type: cell-based, human; settings: 0.5 μM scFv, 4 weeks
Method: (§2) To determine the clonogenicity of HepG2, Hep3B, cells, 5×10^5 cells were pre-incubated in 2 ml DMEM medium containing anti-GPC3 antibodies at concentrations of 0.5-5 uM for 48 hr. Thereafter, cells were harvested, counted and transferred into semi-solid medium supplemented with 0.8% DMEM-methylcellulose and 30% FBS. Finally, 1 ml of the semi-solid medium containing 5×10^3 individual type of cell was plated onto 3.5 cm Petri-dishes. Triplicated Petri-dishes per treatment protocol will be cultivated for 5-7 days under standard conditions. Colony formation (clusters of >30 cells) will be visualized by staining with crystal violet and scored by an inverted microscope. […] The effect of GPC3 scFv on anchorage independent growth of HepG2 and Hep3B cells was explored. Hepatoma cells were treated with 0.5 μM of G5S1, GES1 or α-RTS6 (neg) scFv antibodies for 1 hr and suspended in medium containing 0.4% low melting agarose and plated onto solidified 0.9% agarose in medium at a density of 1×10^5 cells per dish. After incubating for 4 weeks, the number of colonies was counted and recorded. […] The exact reason for the distinct inhibition on 2 cell lines is presently not known.

Hep3B xenograft = assay: Tumor xenograft model, Ki-67 immunohistochemistry of tumor tissue; type: in vivo, NOD-SCID mice; settings: 800 ug/mouse/per time i.v.; compared to untreated groups
Method: NOD-SCID mice were used. Briefly, 4-week-old female […] mice were injected subcutaneously with 4×10^6 of HepG2 and Hep3B cancer cells at a single dorsal site. At day 14, tumor-bearing mice were randomized into experimental groups (5 per group) and treated with anti-GPC3 antibodies and positive control with sorafenib accordingly. 400 ug or 800 ug of antibodies were given through intravenous (i.v.) injection every 3 days for 3 weeks. Tumor size was measured every 2 days with calipers until animals are sacrificed. At the time of sacrifice, tumors were dissected and weighted.
Tissue sections from xenograft tumor tissues in mice were de-waxed in xylene and rehydrated through graded alcohols. The antigen retrieval was carried out by heating the rehydrated tissues in 10 mM sodium citrate (pH 6.0) for 20 min. After washing with buffer containing 10 mM Tris-HCl (pH 7.4) and 150 mM sodium chloride, the sections were treated with 3% hydrogen peroxide for 5 min. Anti-Ki-67 antibodies (commercial polyclonal antibody) was be applied for 1 hr at room temperature. Optimal horseradish peroxidase-conjugated secondary antibodies and diaminobenzidine were added sequentially to detect the Ki-67 proliferation marker expression in the examined tissues. The slides were counterstained with GM hematoxylin solution. […]

GPC3 [5] = target: T1, GPC3 (Homo sapiens, UniProt P51654); assay: Western blot of GPC3 extracellular domain protein and hepatoma cell lysates; type: binding; design: purchased; settings: commercial GPC3 extracellular domain protein under reducing condition; lysates of hepatoma cell lines
Method: (§3) Nitrocellulose membranes were blocked with 5% skim milk in TBST for 1 hr. Polyclonal goat anti-chicken IgY light chain antibodies were added at 1:5000 dilution and incubated for an additional hr. The membranes were washed with TBST three times and the bound antibodies were detected by adding horseradish peroxidase (HRP)-conjugated donkey anti-goat Ig antibodies at 1:3000 dilutions. After three washings, the membranes were developed with diaminobenzidine (DAB) substrate until the desired intensity was reached. The IgY antibodies or the E. coli-expressed scFv antibodies were purified and incubated with the purified GPC3 protein or cellular lysates of GPC3-positive HepG2 and Hep3B cells immobilized on nitrocellulose membranes or ELISA plate wells. Their binding was subsequently detected by adding goat anti-mouse IgG or anti-chicken IgY light chain followed by HRP-conjugated donkey anti-goat Ig antibodies as described above.

Hep3B cells [6] = assay: Cell migration (wounded monolayer) assay; type: cell-based, human; settings: Hep3B monolayers wounded, 0.5 uM scFv, 24 hr
Method: For cell migration assays, 1×10^3 cells were incubated with anti-GPC3 antibodies at concentrations of 1 to 200 μg/ml for 48 hr before being transferred into a transwell migration system. The cells were plated onto a polycarbonate filter membrane with a pore size of 8 μm (upper layer) and incubated for different time interval at 37° C. in 5% CO2 incubator. Serum free medium containing 0.5 mM EDTA was used for washing off the cells from the lower part of the membrane to lower wells. The cells in the lower wells were collected with centrifugation at 3000 g for 5 min and perform direct cell counting under microscope. The mean growth rate (MGR) of cells after migration through the polycarbonate filter was determined by the equation: MGR=log 2 Nt−log2 N0/t, with N0 as initial cell number, Nt as final cell number and t as time period of cell incubation in days. […] To explore whether the GPC3 protein is essential for cell migration, Hep3B cells were cultured until confluence. The monolayers were wounded, cultured with medium containing 0.5 uM of G5 S1 or GES1 and two controls (NC-70sc or NC-spE) scFv antibodies and analyzed after 24, hr. […] The effect of G5S1 scFv was minimal and reached to the basal level obtained in medium without any scFv antibody.

HepG2 cells [7] = assay: Soft agar colony formation assay, HepG2; type: cell-based, human; settings: 0.5 μM scFv, 4 weeks
Method: as §2

HepG2 cells [8] = assay: Cell cycle analysis (propidium iodide, FACS); type: cell-based, human
Method: Fixed cells were stained with propidium iodide and analyzed by FACS. The cell-cycle distribution of different phases was analyzed with FlowJo v 9.0. FIGS. 12 A, B and C show the results of cell cycle analysis. After treated with G5S1, GES1 or α-RTS6 (neg) scFv antibodies for 48 hrs, the adherent HepG2 cells were detached, washed, and exposed to 70% ethanol on 4° C. overnight. After washing, cells were incubated with […] propidium iodide and […] RNaseA. FACS was carried out and data were statistically analyzed by FlowJo software.

HepG2 cells [9] = assay: Proliferation (MTT) assay; type: cell-based, human
Method: A volume of 100 μl DMEM medium containing 5×10^3 HepG2, Hep3B, wherein cells were seeded onto 96-well plates. […] Thereafter, 10 μl of 3-[4,5-dimethylthiazol-2-yl]-2,5-diphenyltetrazolium bromide (MTT; 10 mg/ml) were added to determine the number of surviving cells. The supernatant was removed after 3 hr of incubation, and formazan crystals that had been developed were dissolved by adding of 100 μl acidified 2-propanol/well (0.04 N HCl). Extinction was measured by an automated microtiter plate reader at 540 nm. Unrelated anti-snake venom antibodies (neg) were included in control experiments. […] HepG2 cells were cultured in the medium containing G5S1, GES1, GES6 or control scFv antibodies at final concentrations of 0.1 μM for 1-6 days.

GPC3 [10] = target: T1, GPC3; assay: ELISA binding to commercially available GPC3 immobilized on plate wells; design: analysis of commercial GPC3_extracellular domain (ECD) and truncated (C185) proteins; purchased; settings: partially purified scFv
Method: as §3
HepG2, Hep3B, cells (2×10^5 cells/ml) was seeded on cover glass and fixed by incubating with equal volume of 8% freshly prepared ice-cold paraformaldehyde on ice for 15 min. After fixing, the cells were dehydrated in a sequential treatment of 70%, 95% and 99% methanol and rehydrated with 95% and 70% methanol. […] Finally, their binding to GPC3 protein was detected by mouse anti-HA antibodies, followed by FITC-conjugated goat anti-mouse antibodies. […]

GPC3 in Hep3B cells = target: T2, GPC3 in Hep3B cells (Homo sapiens, UniProt P51654); assay: Immunoprecipitation assay, Hep3B cell lysate; type: binding; settings: Hep3B total cell lysate; data very preliminary
T2 construct: endogenous in cells; host or cells: Hep3B
Method: as §1

With CNC(=O)c1cc(Oc2ccc(NC(=O)Nc3ccc(Cl)c(C(F)(F)F)c3)cc2)ccn1 [sorafenib] the tumor growth inhibition (Hep3B hepatoma cells) was 48.8%.

For hGC33: Humanized GC33, the “efficacy against the HepG2 xenograft relative to GC33” value [1] is given as “as effective as GC33”.

B1: GES1: chicken anti-GPC3 scFv antibody; heavy chain SEQ ID NO: 30, light chain SEQ ID NO: 38 (antibody, V domains shown)
VH: EVQLLESGGGLVQPGGSLRLSCAASGFTFSSFNMFWVRQAPGKGLEWVSWISSTGSRTKYADSVKGRFTISRDNSKNTLYLQMNSLRAEDTATYYCAKSASRGAGRIDAWGRGTLVTVSS
VL: ALTQPPSASGSPGQSITISCTGTGGSYGWYQQHAGKAPKLVIYNNNKRPSGVPDRFSGSKSGNTASLTVSGLQTDDEAVYYCGSRDSSYFGIFGGGTKLTVL
modifications: scFv linker
With B1 the “binding signal to cell surface (immunofluorescence)” value [2] was “various but significant binding signal”, the “binding signal to hepatoma cells (flow cytometry)” value [3] was “various but significant binding signal” and the “precipitation of protein with predicted molecular weight of GPC3” value (GPC3 in HepG2 cells) was “precipitated”. For the same molecule, the “inhibitory effect on colony formation” value (Hep3B cells [4]) was “not as obvious”, the “Ki-67 expression in tumor sections” value (Hep3B xenograft) was “reduced level of Ki-67 expression” and the “fragment of GPC3 identified on western blot” value (GPC3 [5]) was “can identify C-terminus fragment of GPC3 and GPC3 in cellular lysates”. For the same molecule, the “effect on cell migration” value (Hep3B cells [6]) was “partial inhibitory effect”, the “inhibitory effect on colony formation” value (HepG2 cells [7]) was “significant inhibitory effort on colony formation” and the cell cycle arrest (HepG2 cells [8]; 0.5 μM, 48 hrs) was “arrested in G1 phase”. For the same molecule, the “cell population in subG1 stage” value (HepG2 cells [8]; treated 48 hrs) was 28.8%, the “inhibition of cell proliferation, concentration dependence” value (HepG2 cells [9]; 0, 0.5, 1, 2, 4 and 8 μM for 3 days) was “inhibited the cell proliferation in a dosage-dependent manner” and the “suppression on cell proliferation” value (HepG2 cells [9]; HepG2 cells, 0.1 μM, day 6) was “approximately 60%”. The “binding activity to GPC3 on ELISA” value (GPC3 [10]) was “reacted significantly with GPC3” and the “precipitation of protein with predicted molecular weight of GPC3” value (GPC3 in Hep3B cells) was “precipitated”.
